Measurements as given in US6693076.
Values belong to the substance of their own block, whether it stands above or below them.

What was measured:
[1] = target: IGF-I receptor in homogenized adult rat brain tissue (cerebral cortex and cerebellum) (rat) (UniProt P24062); test: displacement of 20 pM 125I-[Thr59]IGF-I from homogenised rat brain tissue; competitor at 100 µM; SD 6
[2] = target: IGF-I receptor in homogenized adult rat brain tissue (cerebral cortex and cerebellum) (rat) (UniProt P24062); test: displacement of 20 pM 125I-[Thr59]IGF-I from homogenised rat brain tissue; competitor at 100 µM; SD 21
[3] = target: IGF-I receptor in homogenized adult rat brain tissue (cerebral cortex and cerebellum) (rat) (UniProt P24062); test: displacement of 20 pM 125I-[Thr59]IGF-I from homogenised rat brain tissue; competitor at 100 µM; SD 1.4
[4] = target: IGF-I receptor in homogenized adult rat brain tissue (cerebral cortex and cerebellum) (rat) (UniProt P24062); test: displacement of 20 pM 125I-[Thr59]IGF-I from homogenised rat brain tissue; competitor at 100 µM; SD 20
[5] = target: 125I-[Threonine59]IGF-I binding sites in adult rat brain sections (level of the cerebellum and brain stem) (rat); test: displacement of 0.01 nM 125I-[Thr59]IGF-I from rat brain sections; competitor at 4 pM
[6] = target: 125I-[Threonine59]IGF-I binding sites in adult rat brain sections (level of the cerebellum and brain stem) (rat); test: displacement of 0.01 nM 125I-[Thr59]IGF-I from rat brain sections; competitor at 400 pM
[7] = target: IGF-I receptor in homogenized adult rat brain tissue (cerebral cortex and cerebellum) (rat) (UniProt P24062); test: displacement of 20 pM 125I-[Thr59]IGF-I from homogenised rat brain tissue; competitor at 1 mM; SD 1.8
[8] = target: 125I-[Threonine59]IGF-I binding sites in adult rat brain sections (level of the cerebellum and brain stem) (rat); test: displacement of 0.01 nM 125I-[Thr59]IGF-I from rat brain sections; competitor at 400 nM
[9] = target: 125I-[Threonine59]IGF-I binding sites in adult rat brain sections (level of the cerebellum and brain stem) (rat); test: displacement of 0.01 nM 125I-[Thr59]IGF-I from rat brain sections; competitor at 200 nM
[10] = target: IGF-I receptor in homogenized adult rat brain tissue (cerebral cortex and cerebellum) (rat) (UniProt P24062); test: displacement of 20 pM 125I-[Thr59]IGF-I from homogenised rat brain tissue; competitor at 40 nM; SD 0.7

IGF-I receptor in homogenized adult rat brain tissue (cerebral cortex and cerebellum) (rat), sequence (P24062 31-1370): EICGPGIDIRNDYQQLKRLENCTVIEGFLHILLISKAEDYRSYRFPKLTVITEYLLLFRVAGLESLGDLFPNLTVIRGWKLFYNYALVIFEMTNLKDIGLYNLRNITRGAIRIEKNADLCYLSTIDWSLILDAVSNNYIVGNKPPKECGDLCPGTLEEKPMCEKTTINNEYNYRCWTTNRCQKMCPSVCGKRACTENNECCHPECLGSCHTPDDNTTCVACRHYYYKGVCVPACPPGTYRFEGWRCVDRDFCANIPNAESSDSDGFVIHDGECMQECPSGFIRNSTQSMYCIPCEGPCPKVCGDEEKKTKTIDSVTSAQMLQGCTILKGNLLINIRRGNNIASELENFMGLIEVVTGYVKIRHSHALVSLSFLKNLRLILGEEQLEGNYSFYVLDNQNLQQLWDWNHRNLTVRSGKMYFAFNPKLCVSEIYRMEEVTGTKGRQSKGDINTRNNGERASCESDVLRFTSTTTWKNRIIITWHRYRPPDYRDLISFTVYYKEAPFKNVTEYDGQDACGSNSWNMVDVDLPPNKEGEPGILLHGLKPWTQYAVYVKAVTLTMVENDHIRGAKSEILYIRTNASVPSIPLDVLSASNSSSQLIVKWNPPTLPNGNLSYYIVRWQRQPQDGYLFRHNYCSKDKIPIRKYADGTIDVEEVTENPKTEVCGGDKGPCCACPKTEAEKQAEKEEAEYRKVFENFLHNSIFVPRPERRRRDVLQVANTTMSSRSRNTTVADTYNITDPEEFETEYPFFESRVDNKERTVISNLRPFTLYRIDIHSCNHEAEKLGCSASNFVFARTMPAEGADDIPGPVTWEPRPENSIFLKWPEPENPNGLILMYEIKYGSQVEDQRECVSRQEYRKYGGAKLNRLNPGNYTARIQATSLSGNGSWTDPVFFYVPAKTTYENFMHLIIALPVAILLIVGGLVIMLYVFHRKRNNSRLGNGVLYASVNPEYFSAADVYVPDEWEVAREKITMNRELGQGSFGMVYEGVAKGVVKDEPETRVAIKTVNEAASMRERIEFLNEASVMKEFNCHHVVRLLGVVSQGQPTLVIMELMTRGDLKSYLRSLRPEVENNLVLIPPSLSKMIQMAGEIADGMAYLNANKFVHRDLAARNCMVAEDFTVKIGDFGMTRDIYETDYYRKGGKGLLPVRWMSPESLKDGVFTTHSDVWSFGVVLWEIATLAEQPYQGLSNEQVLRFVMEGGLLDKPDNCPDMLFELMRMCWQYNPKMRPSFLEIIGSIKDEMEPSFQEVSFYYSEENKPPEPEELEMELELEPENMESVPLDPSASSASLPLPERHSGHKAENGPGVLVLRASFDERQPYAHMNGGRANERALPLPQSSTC
IGF-II (Somatomedin-A), sequence (P01344 25-91): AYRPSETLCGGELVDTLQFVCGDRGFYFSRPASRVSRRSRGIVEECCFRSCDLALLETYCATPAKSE

Substance: IGF-II(62-67) (peptide)
percent max. bound [2]: 83%

Substance: IGF-I(30-41) (peptide)
percent max. bound [3]: 94%

Substance: Human IGF-I (Somatomedin-C) (from UniProt P05019 49-118) (ligand)
percent max. bound [5]: 91%
percent max. bound [6]: 30%

Substance: IGF-II(33-40) (peptide)
percent max. bound [7]: 92%

Substance: IGF-II (Somatomedin-A) (from UniProt P01344 25-91) (ligand)
percent max. bound [8]: 23%
percent max. bound [9]: 50%
percent max. bound [10]: 92.1%

Second part, the substance after the results:

percent max. bound [1]: 94%
Substance: IGF-II(54-67) (peptide)

percent max. bound [4]: 83%
Substance: IGF-I(62-70) (peptide)
